Test results taken from patent publication US20260184783A1 (Merck Sharp & Dohme, published 2026).

Columns and labels:
[1] = biological target: T1, human PD-1 expressed on cells (human, UniProt Q15116 25-288); test: cell-based or functional assay
[2] = biological target: T1, human PD-1 expressed on cells; test: flow cytometry on CHO-K1 cells expressing human PD-1; anti-FLAG + PE goat anti-mouse
Protocol: Binding to cell-expressed human PD-1 was evaluated on human PD-1 over-expressing CHO cells. A Nanobody dilution series was prepared in assay buffer: PBS/10% FBS/0.05% sodium azide. 1×10⁵ cells/well were transferred to a 96-well V-bottom plate and resuspended in 100 μL Nanobody dilution. After 30 minutes incubation at 4° C., the cells were washed with 100 μL/well assay buffer and resuspended in 100 μL/well of 1 μg/ml anti-FLAG (Sigma, F1804) or anti-HIS (AbD Serotec, MCA 1396). […] Samples were incubated for 30 minutes at 4° C., washed, and resuspended in 100 μL/well of 5 nM TOPRO3 (LifeTechnologies, T3606) solution before analysis on FACS CANTO II (BD).

[3] = biological target: T1, human PD-1 expressed on cells; test: flow cytometry competition: blockade of human PD-L1-hFc binding to CHO-K1 cells expressing human PD-1; PE goat anti-human IgG
Protocol: (§1) Ligand competition assays were performed on human PD-1 over-expressing CHO cells. A Nanobody dilution series was prepared in assay buffer: PBS/10% FBS/0.05% sodium azide. […] 2×10⁴ cells/well were seeded in V-bottom 96-well plates and resuspended in 200 μL/well of the Nanobody/ligand dilution. After 90 minutes incubation at 4° C., the cells were washed with 100 μL/well assay buffer and resuspended in 100 μL/well PE-labeled Goat anti-human IgG (Southern Biotech, 2043-09). Samples were incubated for 30 minutes at 4° C., washed, and resuspended in 100 μL/well of 5 nM TOPRO3 (LifeTechnologies, T3606) solution before analysis on FACS CANTO II (BD).

[4] = biological target: T1, human PD-1 expressed on cells; test: flow cytometry competition: blockade of human PD-L2-hFc binding to CHO-K1 cells expressing human PD-1; PE goat anti-human IgG
Protocol: as §1

T1 sequence (Q15116 25-288 limits assumed): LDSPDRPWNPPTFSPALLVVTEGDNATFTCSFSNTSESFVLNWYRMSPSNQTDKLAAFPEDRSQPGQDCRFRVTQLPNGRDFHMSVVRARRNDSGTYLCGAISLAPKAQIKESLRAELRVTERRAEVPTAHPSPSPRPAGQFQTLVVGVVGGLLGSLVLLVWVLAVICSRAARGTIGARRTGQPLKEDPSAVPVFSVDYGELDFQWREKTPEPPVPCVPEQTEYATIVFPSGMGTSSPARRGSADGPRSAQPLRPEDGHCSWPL

B1: F023700706 (1PD102C12 (L11V, A14P, A74S, K83R, I89L)-FLAG3-HIS6) (VHH)
VHH: EVQLVESGGGVVQPGGSLRLSCAASGSIASIHAMGWFRQAPGKEREFVAVITWSGGITYYADSVKGRFTISRDNSKNTVYLQMNSLRPEDTALYYCAGDKHQSSWYDYWGQGTLVTVSS
notes: also called SO 1PD102C12 monomer
How did the “EC50 (read off the curve), IL-2 promoter luciferase RLU” value [1] turn out when B1 was run?
Its value is roughly 0.9 nM.

What about the “EC50 (read off the curve)” value [2] of the same binder?
Its value is roughly 0.9 nM.

What about the “IC50 (read off the curve)” value [3] of the same binder?
The value was roughly 0.6 nM.

What about the “IC50 (read off the curve)” value [4] of the same binder?
The value was roughly 0.6 nM.
